The values that follow come from patent US20240052065A1 (Boehringer Ingelheim, published 2024).

Assay [1] deals with T1, recombinant human CDH3 [EC1-EC2] (human, UniProt P22223 108-328, limits assumed).
T1 construct: also called HuCDH3 EC1-EC2
Kind of assay: SPR (ProteOn XPR36), bispecific captured on protein A/G, CDH3 as analyte, 1:1 Langmuir fit.
Description: (§1) The binding affinity of purified CDH3/TRAILR2 bispecific constructs for recombinant human CDH3 (either full-length, EC1-EC2 or EC2-EC3) was determined by Surface Plasmon Resonance (SPR), using a ProteOn XPR36 instrument (Bio-Rad). The running buffer and all dilutions (except where stated) were done in PBS-TEDTA. The GLM sensor chip (Bio-Rad) was normalized and pre-conditioned as per the manufacturers recommendations. The sensor chip was activated with equal mixture of EDC/s-NHS in the horizontal direction for 300 sec at a flow rate of 30 μl/min and immobilized with protein A/G (60 μg/ml in 10 mM acetate pH 4.5) in the horizontal direction for 300 sec at a flowrate of 30 μl/min resulting in 5000 RU of protein A/G on the surface. The sensor chip was deactivated with 1 M ethanolamine HCl in the horizontal direction for 300 sec at a flowrate of 30 μl/min.
(§2) For binding kinetic determination to CDH3, bispecific molecules were captured individually on the protein A/G surface vertically for 150 sec at a flowrate of 30 μl/min. The baseline was stabilized by injecting PBS-T-EDTA for 60 sec at a flowrate of 100 μl/min horizontally. The analyte (human full-length CDH3, CDH3 [EC1-EC2] or CDH3 [EC2-EC3]) was injected horizontally over the captured antibody for 300 sec at a flowrate of 30 μl/min and a dissociation for 1200 sec. The concentration of the analytes injected was 200 nM for the full-length CDH3 and 500 nM for EC1-EC2 and EC2-EC3.

Assay [2] deals with T2, recombinant human CDH3, full-length (human, UniProt P22223 108-654, limits assumed).
T2 construct: also called HuCDH3 full-length; human full-length CDH3
The assay is described as above.
Description: as §1, §2

For assay [3], the target named is T3, recombinant human CDH3 [EC2-EC3] (human, UniProt P22223 216-440, limits assumed).
T3 construct: no separate entry is named for EC3; also called HuCDH3_EC2-EC3; EC2-EC3 peptide
Kind of assay: SPR (ProteOn XPR36), bispecific captured on protein A/G, CDH3 EC2-EC3 as analyte.

Substitutions are numbered along the chain they refer to.

B1: bispecific binding molecule CDH3/TRAILR2v2 (bispecific antibody, human IgG1, kappa, L234A L235A)
heavy: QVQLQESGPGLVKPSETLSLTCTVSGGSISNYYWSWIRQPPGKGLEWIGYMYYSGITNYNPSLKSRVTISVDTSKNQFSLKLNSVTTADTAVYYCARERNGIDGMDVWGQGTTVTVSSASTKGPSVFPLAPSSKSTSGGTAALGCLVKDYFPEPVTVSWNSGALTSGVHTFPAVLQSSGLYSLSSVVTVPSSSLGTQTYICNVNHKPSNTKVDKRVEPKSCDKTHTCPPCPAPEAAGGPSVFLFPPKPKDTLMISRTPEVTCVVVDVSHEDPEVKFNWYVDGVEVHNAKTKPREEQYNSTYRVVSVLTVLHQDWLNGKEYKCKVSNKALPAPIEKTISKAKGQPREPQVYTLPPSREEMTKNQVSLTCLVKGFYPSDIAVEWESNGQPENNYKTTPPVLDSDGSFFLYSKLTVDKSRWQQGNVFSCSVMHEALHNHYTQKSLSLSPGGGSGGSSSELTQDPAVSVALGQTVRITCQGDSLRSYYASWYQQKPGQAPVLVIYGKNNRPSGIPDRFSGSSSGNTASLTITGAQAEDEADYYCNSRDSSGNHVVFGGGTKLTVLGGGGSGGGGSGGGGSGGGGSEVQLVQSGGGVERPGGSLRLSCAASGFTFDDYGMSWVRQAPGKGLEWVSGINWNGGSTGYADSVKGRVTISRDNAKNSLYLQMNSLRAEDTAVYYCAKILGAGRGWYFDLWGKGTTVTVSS
light: DIVMTQSPLSLPVTPGEPASISCRSSQSLLHSYGYNYLDWYLQKPGQSPQLLIYLGSNRASGVPDRFSGSGSGTDFTLKISRVEAEDFGIYYCMQALQTPITFGQGTRLEIKRTVAAPSVFIFPPSDEQLKSGTASVVCLLNNFYPREAKVQWKVDNALQSGNSQESVTEQDSKDSTYSLSSTLTLSKADYEKHKVYACEVTHQGLSSPVTKSFNRGEC
notes: also called CDH3/TR2v2
For orientation: Kd means the free concentration of one partner at which half of the binding sites on the other are occupied at equilibrium, for simple one-to-one binding. On to B1, for which the Kd in assay [1] amounted to 11.4 nM; in assay [2], 9.93 nM. Further, in assay [3], the binding result was “no binding (tested: 500 nM analyte)”.

B2: bispecific binding molecule CDH3/TRAILR2v3 (bispecific antibody, human IgG1, kappa, L234A L235A)
heavy: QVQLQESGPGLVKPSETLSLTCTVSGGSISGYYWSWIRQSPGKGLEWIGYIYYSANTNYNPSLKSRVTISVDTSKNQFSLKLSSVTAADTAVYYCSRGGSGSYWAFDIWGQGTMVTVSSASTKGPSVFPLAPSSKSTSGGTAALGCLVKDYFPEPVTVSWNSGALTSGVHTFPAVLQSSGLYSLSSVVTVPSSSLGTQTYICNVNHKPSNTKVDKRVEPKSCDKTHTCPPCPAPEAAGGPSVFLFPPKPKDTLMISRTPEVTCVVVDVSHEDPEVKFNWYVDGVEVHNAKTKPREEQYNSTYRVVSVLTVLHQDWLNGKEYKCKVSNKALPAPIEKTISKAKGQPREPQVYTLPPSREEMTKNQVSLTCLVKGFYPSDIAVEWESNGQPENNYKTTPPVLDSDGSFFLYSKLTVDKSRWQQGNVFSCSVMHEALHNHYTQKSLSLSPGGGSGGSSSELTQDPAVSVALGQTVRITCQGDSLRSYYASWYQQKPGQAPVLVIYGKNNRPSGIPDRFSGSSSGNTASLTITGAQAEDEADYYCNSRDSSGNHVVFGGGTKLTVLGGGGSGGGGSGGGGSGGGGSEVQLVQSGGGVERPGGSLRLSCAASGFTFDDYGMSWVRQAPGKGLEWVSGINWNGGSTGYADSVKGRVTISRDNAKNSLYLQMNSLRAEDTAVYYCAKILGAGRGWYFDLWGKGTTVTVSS
light: B1 light with L30M, H31Y, F88V, I101P, R108K, L109V
notes: also called CDH3/TR2v3
Take B2: the Kd came to 0.85 nM in assay [1] and 1.08 nM in assay [2]. In assay [3], the binding result was “no binding (tested: 500 nM analyte)”.
